Laboratory results taken from paper PMC11601262.

Target: T1, CFP tagged hABHD5 (FCCS) (human), Q8WTS1
T1 chain: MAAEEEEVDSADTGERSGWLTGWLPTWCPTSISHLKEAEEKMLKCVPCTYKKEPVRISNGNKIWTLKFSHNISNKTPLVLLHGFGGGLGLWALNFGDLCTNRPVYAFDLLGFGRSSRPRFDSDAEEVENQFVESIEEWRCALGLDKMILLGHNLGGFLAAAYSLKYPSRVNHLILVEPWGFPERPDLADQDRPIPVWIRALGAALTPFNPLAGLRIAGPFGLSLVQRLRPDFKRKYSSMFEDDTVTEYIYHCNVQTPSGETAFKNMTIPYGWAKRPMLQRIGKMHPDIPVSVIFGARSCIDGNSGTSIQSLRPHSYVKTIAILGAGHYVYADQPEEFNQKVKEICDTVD
Assay: fluorescence cross-correlation spectroscopy
Settings: remark: other sources report otherwise

percent of ABHD5 co-diffusing with PNPLA3: 24%
percent of PNPLA3 co-diffusing with ABHD5: 78%
B1: hPNPLA3 WT-EYFP, Q9NST1 1-481 (natural protein)
chain: MYDAERGWSLSFAGCGFLGFYHVGATRCLSEHAPHLLRDARMLFGASAGALHCVGVLSGIPLEQTLQVLSDLVRKARSRNIGIFHPSFNLSKFLRQGLCKCLPANVHQLISGKIGISLTRVSDGENVLVSDFRSKDEVVDALVCSCFIPFYSGLIPPSFRGVRYVDGGVSDNVPFIDAKTTITVSPFYGEYDICPKVKSTNFLHVDITKLSLRLCTGNLYLLSRAFVPPDLKVLGEICLRGYLDAFRFLEEKGICNRPQPGLKSSSEGMDPEVAMPSWANMSLDSSPESAALAVRLEGDELLDHLRLSILPWDESILDTLSPRLATALSEEMKDKGGYMSKICNLLPIRIMSYVMLPCTLPVESAIAIVQRLVTWLPDMPDDVLWLQWVTSQVFTRVLMCLLPASRSQMPVSSQQASPCTPEQDWPCWTPCSPKGCPAETKAEATPRSILRSSLNFFLGNKVPAGAEGLSTFPSFSLEKSL
